# Data from paper PMC7367873, “Dissecting the sequence determinants for dephosphorylation by the catalytic subunits of phosphatases PP1 and PP2A” (Nature Communications, 2020).
# Columns and labels:
# [1] = tested on: GFP-14-3-3β and its binding proteins; experiment: GFP-14-3-3β co-IP with LC-MS/MS label-free quantification, untreated versus PP1c-treated; design: species or system human; conditions: pairwise comparison PP1 vs untreated, student's t-test; 3 replicates each; LC-MS/MS label-free quantification
# GFP-14-3-3β = GFP-14-3-3β co-IP with LC-MS/MS, untreated GFP-14-3-3β versus GFP control (14-3-3 interactome); assay type: binding, human; conditions: pairwise comparison untreated GFP-14-3-3β vs GFP, student's t-test; 3 replicates each; LC-MS/MS label-free quantification
"Difference (log2), PP1 vs untreated [1] [log2]",Molecule,"Difference (log2), untreated vs GFP (GFP-14-3-3β) [log2]"
-2.386,"AMER1 (protein, UniProt Q5JTC6 1-1135, looked up) APC membrane recruitment …: METQKDEAAQAKGAAASGSTREQTAEKGAKNKAAEATEGPTSEPSSSGPGRLKKTAMKLFGGKKGICTLPSFFGGGRSKGSGKGSSKKGLSKSKTHDGLSEAAHGPEDVVSEGTGFSLPLPELPCQFPSSQSAHGALETGSRCKTSVAGATEKAVAEKFPSMPKPKKGLKGFFSSIRRHRKSKVTGAEQSEPGAKGPERVRARPHEHVSSAPQVPCFEETFQAPRKENANPQDAPGPKVSPTPEPSPPATEKMACKDPEKPMEACASAHVQPKPAPEASSLEEPHSPETGEKVVAGEVNPPNGPVGDPLSLLFGDVTSLKSFDSLTGCGDIIAEQDMDSMTDSMASGGQRANRDGTKRSSCLVTYQGGGEEMALPDDDDEEEEEEEEVELEEEEEEVKEEEEDDDLEYLWETAQMYPRPNMNLGYHPTTSPGHHGYMLLDPVRSYPGLAPGELLTPQSDQQESAPNSDEGYYDSTTPGFEDDSGEALGLVRRDCLPRDSYSGDALYEFYEPDDSLENSPPGDDCLYDLHGRSSEMFDPFLNFEPFLSSRPPGAMETEEERLVTIQKQLLYWELRREQLEAQEARAREAHAREAHAREAYTREAYGREAYAREAHTWEAHGREARTREAQAREVRCRETQVRETQARQEKPVLEYQMRPLGPSVMGLAAGVSGTSQISHRGITSAFPTTASSEPDWRDFRPLEKRYEGTCSKKDQSTCLMQLFQSDAMFEPDMQEANFGGSPRRAYPTYSPPEDPEEEEVEKEGNATVSFSQALVEFTSNGNLFSSMSCSSDSDSSFTQNLPELPPMVTFDIADVERDGEGKCEENPEFHNDEDLAASLEAFELGYYHKHAFNNYHSRFYQGLPWGVSSLPRYLGLPGLHPRPPPAAMALNRRSRSLDTAETLEMELSNSHLVQGYLESDELQAQQEDSDEEDEEEEEGEWSRDSPLSLYTEPPGAYDWPAWAPCPLPVGPGPAWISPNQLDRPSSQSPYRQATCCIPPMTMSISLSVPESRAPGESGPQLARPSHLHLPMGPCYNLQPQASQSMRARPRDVLLPVDEPSCSSSSGGFSPSPLPQAKPVGITHGIPQLPRVRPEHPQPQPTHYGPSSLDLSKERAEQGASLATSYSSTAMNGNLAK",1.494
-2.212,"FGD6 (protein, UniProt Q6ZV73 1-1430, looked up) FYVE, RhoGEF and PH …: MTSAAEIKKPPVAPKPKFVVANNKPAPPPIAPKPDIVISSVPQSTKKMKPAIAPKPKVLKTSPVREIGQSPSRKIMLNLEGHKQELAESTDNFNCKYEGNQSNDYISPMCSCSSECIHKLGHRENLCVKQLVLEPLEMNENLENSKIDETLTIKTRSKCDLYGEKAKNQGGVVLKASVLEEELKDALIHQMPPFISAQKHRPTDSPEMNGGCNSNGQFRIEFADLSPSPSSFEKVPDHHSCHLQLPSDECEHFETCQDDSEKSNNCFQSSELEALENGKRSTLISSDGVSKKSEVKDLGPLEIHLVPYTPKFPTPKPRKTRTARLLRQKCVDTPSESTEEPGNSDSSSSCLTENSLKINKISVLHQNVLCKQEQVDKMKLGNKSELNMESNSDAQDLVNSQKAMCNETTSFEKMAPSFDKDSNLSSDSTTVDGSSMSLAVDEGTGFIRCTVSMSLPKQLKLTCNEHLQSGRNLGVSAPQMQKESVIKEENSLRIVPKKPQRHSLPATGVLKKAASEELLEKSSYPSSEEKSSEKSLERNHLQHLCAQNRGVSSSFDMPKRASEKPVWKLPHPILPFSGNPEFLKSVTVSSNSEPSTALTKPRAKSLSAMDVEKCTKPCKDSTKKNSFKKLLSMKLSICFMKSDFQKFWSKSSQLGDTTTGHLSSGEQKGIESDWQGLLVGEEKRSKPIKAYSTENYSLESQKKRKKSRGQTSAANGLRAESLDDQMLSRESSSQAPYKSVTSLCAPEYENIRHYEEIPEYENLPFIMAIRKTQELEWQNSSSMEDADANVYEVEEPYEAPDGQLQLGPRHQHSSSGASQEEQNDLGLGDLPSDEEEIINSSDEDDVSSESSKGEPDPLEDKQDEDNGMKSKVHHIAKEIMSSEKVFVDVLKLLHIDFRDAVAHASRQLGKPVIEDRILNQILYYLPQLYELNRDLLKELEERMLHWTEQQRIADIFVKKGPYLKMYSTYIKEFDKNIALLDEQCKKNPGFAAVVREFEMSPRCANLALKHYLLKPVQRIPQYRLLLTDYLKNLIEDAGDYRDTQDALAVVIEVANHANDTMKQGDNFQKLMQIQYSLNGHHEIVQPGRVFLKEGILMKLSRKVMQPRMFFLFNDALLYTTPVQSGMYKLNNMLSLAGMKVRKPTQEAYQNELKIESVERSFILSASSATERDEWLEAISRAIEEYAKKRITFCPSRSLDEADSENKEEVSPLGSKAPIWIPDTRATMCMICTSEFTLTWRRHHCRACGKIVCQACSSNKYGLDYLKNQPARVCEHCFQELQKLDHQHSPRIGSPGNHKSPSSALSSVLHSIPSGRKQKKIPAALKEVSANTEDSSMSGYLYRSKGNKKPWKHFWFVIKNKVLYTYAASEDVAALESQPLLGFTVIQVKDENSESKVFQLLHKNMLFYVFKAEDAHSAQKWIEAFQEGTIL",2.545
-2.312,"FOXK1 (protein, UniProt P85037 2-733, looked up) Forkhead box protein K1: AEVGEDSGARALLALRSAPCSPVLCAAAAAAAFPAAAPPPAPAQPQPPPGPPPPPPPPLPPGAIAGAGSSGGSSGVSGDSAVAGAAPALVAAAAASVRQSPGPALARLEGREFEFLMRQPSVTIGRNSSQGSVDLSMGLSSFISRRHLQLSFQEPHFYLRCLGKNGVFVDGAFQRRGAPALQLPKQCTFRFPSTAIKIQFTSLYHKEEAPASPLRPLYPQISPLKIHIPEPDLRSMVSPVPSPTGTISVPNSCPASPRGAGSSSYRFVQNVTSDLQLAAEFAAKAASEQQADTSGGDSPKDESKPPFSYAQLIVQAISSAQDRQLTLSGIYAHITKHYPYYRTADKGWQNSIRHNLSLNRYFIKVPRSQEEPGKGSFWRIDPASEAKLVEQAFRKRRQRGVSCFRTPFGPLSSRSAPASPTHPGLMSPRSGGLQTPECLSREGSPIPHDPEFGSKLASVPEYRYSQSAPGSPVSAQPVIMAVPPRPSSLVAKPVAYMPASIVTSQQPAGHAIHVVQQAPTVTMVRVVTTSANSANGYILTSQGAAGGSHDAAGAAVLDLGSEARGLEEKPTIAFATIPAAGGVIQTVASQMAPGVPGHTVTILQPATPVTLGQHHLPVRAVTQNGKHAVPTNSLAGNAYALTSPLQLLATQASSSAPVVVTRVCEVGPKEPAAAVAATATTTPATATTASASASSTGEPEVKRSRVEEPSGAVTTPAGVIAAAGPQGPGTGE",5.634
